This note sets out measurements from patent US11311610B2, “Immune-modulating agents and uses therefor” (UNIVERSITY OF TECHNOLOGY SYDNEY, priority 2010, dated 2022).

Data set [1] concerns ATPase activity associated with lysosomal membranes (equivalent to vATPase activity). Put plainly: ATPase activity of enriched lysosomal membranes. The class given is biochemical, murine. To be noted: lysosomal membranes from RAW264.7 macrophage lysates. On the procedure:
FIG. 17 is a graphical representation showing that FhHDM-1 P3 inhibits ATPase activity associated with lysosomal membranes in a concentration-dependent manner. A cellular fraction enriched for lysosomes was prepared by sequential centrifugation of RAW264.7 macrophage lysates. The lysosomal membranes were recovered and assayed (with or without HDM peptides) for ATPase activity using a commercially available kit.
FIG. 18 is a diagrammatic representation showing a sequence alignment of various synthetic HDM peptides. The amphipathic helix is shaded in grey as are the mutated residues in peptides nonHP and 2Pro. NonHP is a variant of FhHDM-1 P3 in which the hydrophobic face of the FhHDM-1 amphipathic helix was removed. 2Pro is a variant of FhHDM-1 P3 in which two prolines substitutions were incorporated to disrupt the alpha-helix. Cons_p3 is a consensus peptide corresponding to various FhHDM-1 homologs. All peptides in the alignment were tested for their ability to inhibit the ATPase activity associated with enriched lysosomal membranes (prepared from RAW macrophages). Those with inhibitory activity are shown in bold text.
A cellular fraction enriched for lysosomes was prepared by sequential centrifugation of RAW264.7 macrophage lysates. The lysosome pellet was extracted with water and the resulting lysosomal membranes were recovered and assayed (with or without HDM peptides) for ATPase activity using a commercially available kit.

Data set [2] concerns primary human macrophages. Put plainly: Proteomics analysis of treated macrophages. The class given is cell-based. An excerpt: FIG. 11 is a diagrammatic representation showing a Venn diagram of soluble proteins identified in primary human macrophages.
The subject of data set [3] is peritoneal macrophages. Put plainly: IL-10 secretion by peritoneal macrophages of treated NOD mice. The class given is in vivo. The conditions noted are these: 10 μg i.p. x6, 24 h after last injection, compared to untreated mice. On the procedure:
FhHDM-1 was given to female NOD mice aged 4 weeks. 10 μg of FhHDM-1 was delivered i.p. in PBS on alternate days for a total of 6 doses. 24 h after the last injection, macrophages were isolated from the peritoneal lavage and cultured in RPMI supplemented with FCS for 12 h. IL-10 secreted into the media was measured by ELISA.
Female NOD mice (n=6) were given recombinant HDM (10 μg in 100 μL sterile PBS) by intraperitoneal (i.p.) injection on alternate days beginning at 4 weeks of age for a total of 6 injections. Control mice were given 100 μL of sterile PBS on the same days. 24 h after the last injection mice were sacrificed and peritoneal cells harvested by lavage. Macrophages were isolated from peritoneal lavages based upon their adherent properties, and cultured overnight at 37° C. in RPMI supplemented with FCS. The quantity of IL-10 secreted into the media was measured by ELISA.

The subject of data set [4] is primary human macrophages. Briefly: Confocal microscopy of macrophages incubated with FhHDM-1. To be noted: 10 μg/mL for 2 h. The class given is cell-based. On the procedure:
FIG. 10 is a photographic representation showing representative immunofluorescent images obtained by confocal microscopy at an original magnification 100× of primary human macrophages (A) and (C) incubated with recombinant FhHDM-1 (10 μg/mL for 2 h). Images (B) and (D) were experimental controls incubated with media only. Cells were stained with mouse anti-His MAb (1/2000), goat-anti-mouse Alexa-488-conjugated secondary antibody (1/1000) (green staining) and DiI plasma membrane stain (red staining). DAPI was used for identification of the cell nucleus (blue staining).

The test system of data set [5] is RAW macrophages. Put plainly: ATP induced macrophage cell death (LDH release). The class given is cell-based, murine. The conditions noted are these: 20 μg/mL pre-treatment 1 h, then ATP 5 mM 2 h. On the procedure:
FIG. 16 is a graphical representation showing that FhHDM-1 P3 prevents ATP induced cell death in RAW macrophages. RAW macrophages were pretreated with either FhHDM-1 (20 μg/mL) or FhHDM-1 p3 (20 μg/mL) for 1 h, then washed and cultured in the presence of ATP (5 mM) for 2 h. Cell death (% cytotoxicity) was quantified according to the amount of LDH released by the cells into culture media.
Raw macrophages were pre-treated with either HDM (20 μg/mL) or FhHDM-1 P3 (20 μg/mL) for 1 h, washed and then cultured in the presence of ATP (5 mM) for 2 h. The culture supernatants were collected and assayed for LDH activity with an LDH release kit. The amount of LDH release by cells treated with ATP only was used to represent 100% cytotoxicity.

Data set [6] relates to human monocytes. Put plainly: Activation marker expression on stimulated human monocytes (flow cytometry). The format is cell-based. To be noted: human monocytes stimulated 40 h with 10 μg/mL.
In data set [7] the test system is peritoneal macrophages. Put plainly: Alternative activation of peritoneal macrophages in mice (RT-PCR). The format is in vivo. The conditions noted are these: Balb/c mice, three i.p. injections of 5 μg. On the procedure:
FIG. 7 is a photographic representation showing the results of a RT-PCR analysis of macrophage RNA isolated from Balb/c mice given three i.p. injections of 5 μg native FhHDM-1 (NFh6) or recombinant FhHDM-1 (FH6).
Balb/c mice were given three intraperitoneal (i.p.) injections of 5 μg native (NFh6) or recombinant FhHDM-1.

The subject of data set [8] is inflammatory response to bacterial lipopolysaccharide. Briefly: Inflammatory response to LPS in vivo after HDM pre-treatment. To be noted: BALB/c mice, 1 μg i.p. 2 h before 1 μg LPS, 4 h later. On the procedure: Female BALB/c mice were given 1 μg of FhHDM-1 i.p. and 2 h later given 1 μg of E. coli LPS i.p. After another 4 h, mice were sacrificed and serum and peritoneal macrophages assessed for the presence of inflammatory cytokines.
Female BALB/c mice (n=5) were given a single intraperitoneal injection of 1 μg of recombinant HDM two hours prior to an intraperitoneal injection of 1 μg of E. coli lipopolysaccharide. Four hours later, mice were sacrificed and blood and peritoneal cells were harvested. Peritoneal macrophages were isolated from lavage fluid based upon their adherent properties, and cultured overnight at 37° C. in RPMI supplemented with FCS. The quantities of inflammatory cytokines in both sera and culture media from macrophages were measured by ELISA.

Setting [9] is: of 237 proteins present in both samples.

Regarding “KARDRAMAYLAKDNLGEKITEVITILLNRL (FhHDM-1 peptide 1 comprising a truncated amphipathic helix contained in FhHDM-1) [FhHDM-1 p1, peptide in which the amphipathic helix is truncated]”, the “ATPase activity associated with lysosomal membranes” value in data set [1] is on record as “did not inhibit ATPase activity”.

B1: FhHDM-1: 90-residue polypeptide from F. hepatica, Helminth Defense Molecule-1 (SEQ ID NO:24); recombinant form minus N-terminal signal peptide, expressed in E. coli (protein, listed as Fasciola hepatica)
chain: MRFIVLLCLAEVLLAAYVEARPSEESREKLRESGRKMVKALRDAVTKAYEKARDRAMAYLAKDNLGEKITEVITILLNRLTDRLEKYAGN
Consider B1, for which, in data set [2], the “lysosomal proteins of primary macrophages” value is “down-regulates”. In data set [2] (setting [9]), the “number of proteins down-regulated following treatment” value amounted to 44 and the “number of proteins up-regulated following treatment” value worked out at 42. The “KEGG pathways in primary human macrophages (Table 5)” value in data set [2] (proteomic analysis) was “down-regulated”. For the same molecule, the “number of proteins uniquely expressed in the treated sample” value in data set [2] (versus PBS-treated sample) stood at 6. Also, the “IL-10 secreted by peritoneal macrophages” value in data set [3] is “significantly more”. Also, the “interaction with the plasma membrane of macrophages” value in data set [4] is given as “interacts with the plasma membrane”. Moreover, the “LDH release induced by ATP (cytotoxicity of ATP)” value in data set [5] is given as “no significant effect”. In addition, in data set [6], the “expression of markers of alternative activation (CD163 and CD206)” value was “increased expression”; the “expression of markers of the classical phenotype (CD86 and HLA-DR)” value is listed as “decreased expression”. Also, the “expression of Arg-1 and Ym1 in isolated peritoneal macrophages” value in data set [7] is “increased expression”. In data set [8], the “IL-12 secreted by peritoneal macrophages” value is on record as “significantly less”, the “TNFα secreted by peritoneal macrophages” value was “significantly less”, the “levels of IL-10 in circulation” value was “significantly reduced” and the “quantity of TNFα in sera” value is “also reduced this did not reach significance”. Also, the “ATPase activity associated with lysosomal membranes” value in data set [1] was “did not inhibit ATPase activity”.
